B1: SEPHS2 (parent)
chain: KASGRFGLLQGTSAETSGGLLICL
B2: KLHL14 (parent)
chain: WLYCYDPVMDVWARKQDMNTKRAI

Variants of: B1
Experiment: protein stability index of a GFP-peptide fusion (GPS, HEK-293T) (PSI 1-6); higher = more stable
Conditions: c terminus: a fixed tail appended
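Note: lentivirally expressed fusions sorted by FACS into six bins by GFP to DsRed ratio, PSI derived from sequencing read proportions per bin multiplied by bin number.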

Protein stability index, by site and new letter:
G7: K 3.27, L 3.5, S 2.55, I 2.32, H 2.78, D 3.42, Y 2.71, A 3.63, N 2.13, W 2.21, T 1.88
L9: E 2.76, V 1.74, R 2.98, P 2.32, N 1.78, I 2.41, Y 2.09
A2: D 2.81, G 1.38, W 2.41, S 3.5, Q 3.26, V 3.69, Y 2.29
F6: I 2.31, M 2.44, V 1.57, K 1.79, Y 1.75, L 2.48, T 3.52, S 1.81, E 2.37, Q 2.79, W 4.73, D 1.03
G11: M 2.37, K 3.04, N 2.76, R 3.92, T 4.7, S 1.86, H 2.12, Q 2.54
L8: I 2.17, F 2.18, K 3.37, C 3.4, V 3.22, Y 1.85, W 2.08, M 2.26, A 2.02, G 3.65
G19: Q 2.1, I 2.54, T 1.74, H 1.74, A 3.71, L 2.19, R 2.62, Y 1.89, M 2.76
Q10: P 2.19, M 3.87, V 3.11, N 2.95, E 2.2, I 3.54, S 1.71
S17: W 3.02, N 2.67, G 2.08, L 1.18, F 2.78
G18: K 2.4, P 2.98, D 2.67, C 3.15, N 2.2, Q 2.5
T16: F 3.47, I 2.5, M 2.06, H 1.88, S 1.61, R 2.58
G4: A 4.01, P 1.95, E 3.09, K 3.51, S 3.04, L 2.01, T 3.11, D 2.9, Q 2.76
E15: Y 4.55, R 1.37, D 2.1, A 2.02, T 2.48, C 2.82, I 1.91, W 1.66
S13: M 2.24, D 2.01, Q 1.5, V 4.84, K 2.7
L21: D 2.12, A 1.04
A14: Q 3.85, E 2.62, L 2.44, C 1.81, T 1.72, Y 2.24, H 2.43, N 2.93
T12: E 2.52, F 3.31, L 3.67
R5: K 2.97, L 3.49, A 5.51, D 2.61, I 3.36, T 3.23, F 3.72, C 2.27, H 3.5, W 1.66, V 3.1
K1: C 2.13, T 1.69, E 2.6, W 2.52, L 2.28, N 1.95, S 3.13, G 1.44, D 2.07
S3: F 1.71, M 1.51, D 2.07, E 2.76, R 1.82, A 1.55, T 3.36, H 4.72, P 3.31
L20: S 1.94, N 2.63, E 1.82, H 2.07, G 1.96, K 1.95, P 2.39, A 2.87, Q 2.58

Variants of: B2
Experiment: as above
Conditions: c terminus: a fixed tail appended

Protein stability index: each site, then its substitutions
N19: G 2, A 1.59, M 2.13, D 2.27, H 1.57, T 1.88
